{"source": "paper PMC10765799", "binders": {"B1": {"name": "LexA-SAP130 C-terminal region (amino acids 760-1048) WT, Q9H0E3 K794A; K878A; K932A (protein)", "chain": "APPPSVTVGGSLSSVLGPPVPEIKVAEEVEPMDIMRPVSAVPPLATNTVSPSLALLANNLSMPTSDLPPGASPRKKPRKQQHVISTEEGDMMETNSTDDEKSTAKSLLVAAEKRKSPPKEYIDEEGVRYVPVRPRPPITLLRHYRNPWKAAYHHFQRYSDVRVAEEKKAMLQEIANQKGVSCRAQGWKVHLCAAQLLQLTNLEHDVYERLTNLQEGIIPKKKAATDDDLHRINELIQGNMQRCKLVMDQISEARDSMLKVLDHKDRVLKLLNKNGTVKKVSKLKRKEKV"}}, "key": {"[1]": {"target": "T1, Gal4 AD-mSin3A (full-length), Q60520", "T1 chain": "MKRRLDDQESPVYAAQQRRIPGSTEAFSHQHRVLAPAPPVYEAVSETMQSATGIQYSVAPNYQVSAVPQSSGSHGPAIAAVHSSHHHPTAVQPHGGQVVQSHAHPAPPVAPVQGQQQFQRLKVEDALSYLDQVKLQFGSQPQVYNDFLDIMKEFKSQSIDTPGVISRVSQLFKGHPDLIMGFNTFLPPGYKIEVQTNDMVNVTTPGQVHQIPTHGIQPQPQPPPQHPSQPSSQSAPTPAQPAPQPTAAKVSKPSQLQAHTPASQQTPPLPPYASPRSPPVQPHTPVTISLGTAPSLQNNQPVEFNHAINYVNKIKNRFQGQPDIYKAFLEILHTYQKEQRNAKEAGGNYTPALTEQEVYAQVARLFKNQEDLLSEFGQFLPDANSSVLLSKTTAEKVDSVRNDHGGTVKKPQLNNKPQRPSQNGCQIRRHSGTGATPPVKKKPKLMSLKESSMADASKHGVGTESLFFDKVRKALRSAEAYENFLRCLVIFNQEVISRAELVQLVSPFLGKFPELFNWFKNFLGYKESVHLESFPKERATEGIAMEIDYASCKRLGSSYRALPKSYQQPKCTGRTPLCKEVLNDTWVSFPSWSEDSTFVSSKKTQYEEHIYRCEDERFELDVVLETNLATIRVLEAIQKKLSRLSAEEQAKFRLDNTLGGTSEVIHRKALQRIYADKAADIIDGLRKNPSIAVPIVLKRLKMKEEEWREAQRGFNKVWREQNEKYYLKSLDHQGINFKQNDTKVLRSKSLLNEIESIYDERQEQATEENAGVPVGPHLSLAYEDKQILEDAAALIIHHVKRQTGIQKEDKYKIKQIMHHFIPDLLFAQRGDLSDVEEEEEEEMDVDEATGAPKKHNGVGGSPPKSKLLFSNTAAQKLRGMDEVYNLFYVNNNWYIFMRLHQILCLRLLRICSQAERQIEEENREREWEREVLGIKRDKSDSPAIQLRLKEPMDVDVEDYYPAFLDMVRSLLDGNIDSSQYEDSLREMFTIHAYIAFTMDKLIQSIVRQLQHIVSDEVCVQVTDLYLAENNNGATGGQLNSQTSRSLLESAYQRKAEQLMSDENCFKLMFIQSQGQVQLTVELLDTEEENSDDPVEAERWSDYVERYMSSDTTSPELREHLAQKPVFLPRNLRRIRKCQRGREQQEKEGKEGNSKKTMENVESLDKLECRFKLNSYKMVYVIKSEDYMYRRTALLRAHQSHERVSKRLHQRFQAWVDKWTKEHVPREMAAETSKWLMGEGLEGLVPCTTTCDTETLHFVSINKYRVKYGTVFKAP", "experiment": "yeast two-hybrid, quantitative liquid β-galactosidase assay", "settings": "chain shown with the change; yeast strain L40; parent: est. 60000; read off a plot"}, "Gal4 AD-FAF1 WT, Q9UNN5": {"target": "T2, Gal4 AD-FAF1 WT, Q9UNN5", "T2 chain": "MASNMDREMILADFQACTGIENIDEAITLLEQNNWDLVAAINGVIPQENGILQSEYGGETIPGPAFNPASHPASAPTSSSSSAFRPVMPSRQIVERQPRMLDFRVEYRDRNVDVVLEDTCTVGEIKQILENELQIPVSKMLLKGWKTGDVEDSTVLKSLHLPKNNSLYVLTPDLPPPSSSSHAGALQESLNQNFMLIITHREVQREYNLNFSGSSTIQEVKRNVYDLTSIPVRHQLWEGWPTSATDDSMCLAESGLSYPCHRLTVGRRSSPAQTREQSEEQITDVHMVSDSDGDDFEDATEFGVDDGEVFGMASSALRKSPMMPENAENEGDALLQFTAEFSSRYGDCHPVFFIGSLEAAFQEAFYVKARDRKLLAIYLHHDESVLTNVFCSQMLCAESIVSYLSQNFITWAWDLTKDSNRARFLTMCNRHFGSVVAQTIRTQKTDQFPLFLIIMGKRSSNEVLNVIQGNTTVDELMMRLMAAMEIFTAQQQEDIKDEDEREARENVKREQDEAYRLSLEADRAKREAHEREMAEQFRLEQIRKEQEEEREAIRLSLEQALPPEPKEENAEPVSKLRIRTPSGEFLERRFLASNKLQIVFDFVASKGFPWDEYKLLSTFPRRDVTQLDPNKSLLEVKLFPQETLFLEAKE", "experiment": "yeast two-hybrid, quantitative liquid β-galactosidase assay", "settings": "chain shown with the change; yeast strain L40; parent: est. 1500000; read off a plot"}}}
{"binder": "B1", "values": [{"measurement": "response", "setting": "[1]", "result": 190000}, {"measurement": "response", "setting": "Gal4 AD-FAF1 WT, Q9UNN5", "result": 43000}]}
